Changes are numbered by the printed parent chain. Entries after “also recorded” stand apart in the source; their conditions may differ.
B1: 29C12.1 ADC (conjugate)
VH: EVQLLESGGALVQPGGSLRLSCAASGFTFSSYAMNWVRQAPGKGLEWVSAISVGGDTYYADSVKGRFTISRDNSKNTLYLQMNSLRAEDTAVYYCAKDQVTMVRGVWYYYGLDVWGQGTTVTVSS
VL: DIVMIQSPLSLPVTPGEPASISCRSSQSLLHSNGNNYLDWYLQKPGQSPHLLISLGSNRTSGVPDRFSGSGSGTDFTLKISRVEAEDVGVYYCMQALQPPRRFGQGTKLEIKR
B2: 32B5-MCC-DM1 (conjugate)
VH: B1 VH with Q81H, M82V, R86S, T90S, M102L
VL: B1 VL with D1V, M4L, V90F
B3: 37B2.1 ADC (conjugate)
VH: B1 VH with S31N, Q81H, M82V, R86S, T90S, M102L
VL: B1 VL with D1V, M4L, V90F
B4: 40D7.1 ADC (conjugate)
VH: B1 VH
VL: B1 VL with Y37F, F67L, V90I, Q98R
B5: 35D2.1 ADC (conjugate)
VH: B1 VH with D56G, Q81H, M82V
VL: B1 VL with D1V, M4L, V90F
B6: 29C12-MCC-DM1 (conjugate)
VH: B1 VH
VL: B1 VL
B7: 32B5.1 ADC (conjugate)
VH: B1 VH with Q81H, M82V, R86S, T90S, M102L
VL: B1 VL with D1V, M4L, V90F
B8: 33C7.1 ADC (conjugate)
VH: B1 VH with Q81H, M82V, R86S, T90S, M102L
VL: B1 VL with D1V, M4L, V90F
B9: 29C12: second campaign anti-huBCMA mAb, Vh SEQ ID NO:220, Vl SEQ ID NO:254 (antibody, V domains shown)
VH: B1 VH
VL: B1 VL

Each molecule was assayed on H929 cells (assay: CellTiter-Glo Luminescent Cell Viability Assay, H929). Settings: not given.
Format: cell-based, human
Protocol: The ADCs were tested for the ability to target and kill BCMA-expressing myeloma cells. The CellTiter-Glo® Luminescent Cell Viability Assay is a homogeneous method to determine the number of viable cells in culture based on quantitation of the ATP present, which signals the presence of metabolically active cells. The CellTiter-Glo® Assay is applicable to cytotoxicity assays (see http://www.promega.com/products/cell-health-assays/cell-viability-assays/celltiterglo-luminescent-cell-viability-assay/ for more information). The cell viability assay was used to assess the relative killing capacity of various ADCs on various multiple myeloma cell lines and B-cell lines. The protocol provided in the Cell Titer-Glo kit (Promega G7572) was followed. In short, 5×10^3 target cells in 90 ul RPMI 1640, 10% FBS were aliquoted into clear, flat bottom, white walled 96 well plates (Costar #3903). The ADCs were diluted into a 10× stock to create 500 nM maytansine drug equivalents. Each ADC was serially diluted in 2-fold dilutions in RPMI 1640, 10% FBS starting with 500 nM stock. 10 ul of the 10×ADC dilution series was added to the 90 ul of cells in media (triplicate wells). The highest concentration of ADC was approximately 50 nM maytansine drug equivalents, and the lowest concentration of ADC was approximately 50 pM maytansine drug equivalents. An isotype control ADC (an anti-streptavidin huIgG1 conjugated to MCC-DM1) was included, as well as a media-only control. The plates were incubated at 37° C., 5% CO2 for 96 hours. After incubation, 100 ul of the Substrate Solution (Promega G7572) was added to each well. Luminescence was read on an EnVision™ Multilabel reader (PerkinElmer) or Analyst HT plate reader (LJL Biosciences). The data was analyzed and graphed using GraphPad Prism™ to determine the relative efficacy of the ADCs on various cancer cell lines.
The 2A1CV5-MCC-DM1, 32B5-MCC-DM1 and 29C12-MCC-DM1 ADCs were tested for the ability to target and kill BCMA-expressing myeloma cells (H929). The CellTiter-Glo® Luminescent Cell Viability Assay is a homogeneous method to determine the number of viable cells in culture based on quantitation of the ATP present, which signals the presence of metabolically active cells. The CellTiter-Glo® Assay is applicable to cytotoxicity assays (see http://www.promega.com/products/cell-health-assays/cell-viability-assays/celltiter_glo-luminescent-cell-viability-assay/ for more information). The cell viability assay was used to assess the relative killing capacity of various ADCs on various multiple myeloma cell lines and B-cell lines. The protocol provided in the Cell Titer-Glo kit (Promega G7572) was followed. In short, 5×10^3 target cells in 90 ul RPMI 1640, 10% FBS were aliquoted into clear, flat bottom, white walled 96 well plates (Costar #3903). The ADCs were diluted into a 10× stock to create 500 nM maytansine drug equivalents. Each ADC was serially diluted in 2-fold dilutions in RPMI 1640, 10% FBS starting with 500 nM stock. 10 ul of the 10×ADC dilution series was added to the 90 ul of cells in media (triplicate wells). The highest concentration of ADC was approximately 50 nM maytansine drug equivalents, and the lowest concentration of ADC was approximately 50 pM maytansine drug equivalents. An isotype control ADC (an anti-streptavidin huIgG1 conjugated to MCC-DM1) was included, as well as a media-only control. The plates were incubated at 37° C., 5% CO2 for 96 hours. After incubation, 100 ul of the Substrate Solution (Promega G7572) was added to each well. Luminescence was read on an EnVision™ Multilabel reader (PerkinElmer) or Analyst HT plate reader (LJL Biosciences). The data was analyzed and graphed using GraphPad Prism™ to determine the relative efficacy of the ADCs on various cancer cell lines.

**Q.** With B1 as the molecule, how does the “killing of huBCMA-expressing myeloma cells (H929)” value (from here on “killing … (H929)”) read?
**A.** Its value is “selectively killed huBCMA-expressing target cells; also recorded: showed cytotoxicity”.

**Q.** With B2 as the molecule, how does the “killing … (H929)” value read?
**A.** The value was “able to target and kill BCMA-expressing myeloma cells (H929)”.

**Q.** B3 was tested. Which “killing … (H929)” value did it give?
**A.** The value was “selectively killed huBCMA-expressing target cells; also recorded: showed cytotoxicity”.

**Q.** Which “killing … (H929)” value does the source give for B4 here?
**A.** Its value is “selectively killed huBCMA-expressing target cells; also recorded: showed cytotoxicity”.

**Q.** For B5, which “killing … (H929)” value is on record?
**A.** The value was “selectively killed huBCMA-expressing target cells; also recorded: showed cytotoxicity”.

**Q.** How did the “killing … (H929)” value turn out when B6 was run?
**A.** Its value is “able to target and kill BCMA-expressing myeloma cells (H929)”.

**Q.** How did the “killing … (H929)” value turn out when B7 was run?
**A.** Its value is “selectively killed huBCMA-expressing target cells; also recorded: showed cytotoxicity”.

**Q.** For B8, which “killing … (H929)” value is on record?
**A.** Its value is “selectively killed huBCMA-expressing target cells; also recorded: showed cytotoxicity”.

The molecules below were run on various cell lines (assay: Cell viability control: cell lines exposed to free DM1). Settings: FIG. 13.
Format: cell-based, human
Protocol: The ADCs were tested for the ability to target and kill BCMA-expressing myeloma cells. The CellTiter-Glo® Luminescent Cell Viability Assay is a homogeneous method to determine the number of viable cells in culture based on quantitation of the ATP present, which signals the presence of metabolically active cells. The CellTiter-Glo® Assay is applicable to cytotoxicity assays (see http://www.promega.com/products/cell-health-assays/cell-viability-assays/celltiterglo-luminescent-cell-viability-assay/ for more information). The cell viability assay was used to assess the relative killing capacity of various ADCs on various multiple myeloma cell lines and B-cell lines. The protocol provided in the Cell Titer-Glo kit (Promega G7572) was followed. In short, 5×10^3 target cells in 90 ul RPMI 1640, 10% FBS were aliquoted into clear, flat bottom, white walled 96 well plates (Costar #3903). The ADCs were diluted into a 10× stock to create 500 nM maytansine drug equivalents. Each ADC was serially diluted in 2-fold dilutions in RPMI 1640, 10% FBS starting with 500 nM stock. […] Luminescence was read on an EnVision™ Multilabel reader (PerkinElmer) or Analyst HT plate reader (LJL Biosciences). The data was analyzed and graphed using GraphPad Prism™ to determine the relative efficacy of the ADCs on various cancer cell lines. […]

**Q.** Which “killing of cell lines by free drug” value does the source give for COc1cc2cc(c1Cl)N(C)C(=O)C[C@H](OC(=O)[C@H](C)N(C)C(=O)CCS)[C@]1(C)O[C@H]1[C@H](C)[C@@H]1C[C@@](O)(NC(=O)O1)[C@H](OC)/C=C/C=C(\C)C2 [DM1] here?
**A.** Its value is “killed by free DM1”.

What follows are molecules tested against T1, [6x Histidine-SUMO]-huBCMA (SEQ ID NO:350) and carboxy terminal clipped forms (Homo sapiens, UniProt Q02223) (assay: Size exclusion chromatography and LC/MS of antibody complexes with Sumo-huBCMA and its clipped forms). Settings: SEC.
T1 construct: GGS-G3 linker + Avi tag (lost in the clipped species) (C); made in house
T1 sequence (Q02223 5-54): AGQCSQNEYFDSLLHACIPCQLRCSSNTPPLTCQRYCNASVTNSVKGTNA
Format: binding
Text: To determine which forms of 6×His-SUMO-huBCMA were bound to the anti-huBCMA antibodies, the SEC fractions were isolated and analyzed. Carboxy-terminus fragments of the extracellular domain of human BCMA were generated as clipped forms from the rhuBCMA fusion protein (6×His::Sumo::huBCMA(aa 5-51)::GGS::G3::Avi) of SEQ ID NO:350, as shown in FIG. 45.
A Superdex 200™ 10/30 cm SEC column (GE Healthcare Life Sciences) was used according to the manufacturer's recommendations and run in phosphate buffered saline (PBS). Incubations of antibody with excess levels of sumoBCMA were performed at room temperature for at least 30 minutes.
A Superdex 200™ 10/30 cm SEC column (GE Healthcare Life Sciences) was used according to the manufacturer's recommended condision and run in phosphate buffered saline (PBS). Incubations of antibody with excess levels of sumoBCMA were performed at room temperature for at least 30 minutes.
5 ug of total proteins were reduced in 50 mM Tris/4 M guanidine/9 mM DTT, pH 8.0 at 55° C. for 15 min, and analyzed in Agilent LCTOF system using a Vydac C8 column, 2.1 mm ID×150 mm, […] particle size. […] TOF MS conditions included capillary voltage of 4000 V, drying gas flow at 10 L/min, dry gas temperature at 300° C., nebulizer gas flow at 40 L/min, and fragmentor voltage of 300 V. MS data was analyzed in Agilent MassHunter™ Qualitative Analysis program.

**Q.** With B9 as the molecule, how does the “binding to full-length and truncated forms of huBCMA” value read?
**A.** The value was “bound full-length and truncated forms of BCMA; also recorded: bound all forms of human BCMA”.

Source: patent US10465009B2, “BCMA antigen binding proteins” (Amgen Inc., priority 2012, dated 2019)
